Source: paper doi:10.1101/2020.09.13.295345 (bioRxiv, 2020)

B1: ΔNClpB, Thermus thermophilus ClpB lacking the N-terminal domain (domain or fragment)
chain: not shown
B2: Thermus thermophilus ClpB, full-length (natural protein)
chain: not shown

Target: the molecule itself
Assay: native gel or EMSA

Protein | binding result
B1 | binds
B2 | binds
